Patent US20190359653A1 (Genentech, published 2019)
Like-named read-outs stand apart in the source and are kept apart here. Numbered stars: 1 amine (or outer) side, 2 acyl side, 3 side chain; on linkers, the order of the positions; unused ones are H or OH. Square brackets hold non-standard residues; d marks the D form. Ends that are not written are not given here. * marks the point of attachment. ξ: configuration not given here. Adp = 2-amino-3-decyloxy-propionic acid, CCCCCCCCCCOC[C@H](N[*:1])C(=O)[*:2]; Tbh = 6-hydroxy-L-norleucine, O=C([C@H](CCCCO[*:3])N[*:1])[*:2]; hPhe = N[C@@H](CCc1ccccc1)C(=O)O; ξGly(octyl) = CCCCCCCCC(N)C(=O)O; hLeu = CC(C)CC[C@H](N)C(=O)O; Octanoyl = CCCCCCCC(=O)*

T1: hFZD8 CRD-Fc (human, UniProt Q9H461 28-158, limits assumed)
T1 construct: domain: CRD; bought (R&D Systems); not shown: Fc part
T1 sequence (looked up): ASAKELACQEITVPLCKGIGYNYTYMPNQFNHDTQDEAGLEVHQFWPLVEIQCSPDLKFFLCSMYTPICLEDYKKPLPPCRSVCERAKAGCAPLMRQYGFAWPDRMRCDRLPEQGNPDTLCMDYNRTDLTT


Legend:
[1] = molecular target: T2, FZD7 receptor of HEK293-TB cells (human, UniProt O75084 33-574); experiment: cell-based or functional assay
[2] = molecular target: T2, FZD7 receptor of HEK293-TB cells; experiment: cell-based or functional assay; remark: listed apart in the source
[3] = molecular target: T2, FZD7 receptor of HEK293-TB cells; experiment: cell-based or functional assay; remark: listed apart in the source
hFZD7 CRD-Fc [4] = molecular target: T3, hFZD7 CRD-Fc (human, UniProt O75084 33-185); experiment: spot phage ELISA
hFZD8 CRD-Fc [5] = molecular target: T1, hFZD8 CRD-Fc; experiment: spot phage ELISA
hFZD7 CRD-Fc [6] = molecular target: T3, hFZD7 CRD-Fc; experiment: spot phage ELISA; remark: listed apart in the source
hFZD8 CRD-Fc [7] = molecular target: T1, hFZD8 CRD-Fc; experiment: spot phage ELISA; remark: listed apart in the source

Row | Binder | signal:noise ratio (hFZD7 CRD-Fc [6]) | signal:noise ratio (hFZD8 CRD-Fc [7]) | further results
1 | Ac-LPSDDLEFW[dC]HVMY-NH2 [Fz7-21C] | – | – | fold reduction of the potency of Wnt1 inhibition against Fz7-21 (FIG. 2D) [1]: 16 fold; fold reduction of the potency of Wnt3a inhibition against Fz7-21 (FIG. 2D) [1]: 31 fold
2 | Ac-LPSDDLEFWCHVMY-NH2 (also: homodimer via Cys10-Cys10 disulfide) [dFz7-21] | – | – | IC50 (nM), TOPbrite reporter assay in HEK293-TB cells stimulated with mWnt3a (50 ng/mL) [2]: 11.1 nM; Reduction in fold potency vs. dimer [2]: 1 fold; Best Fit IC50 (nM), Wnt3a-mediated β-catenin signaling in HEK293-TB cells (50 ng/mL mWnt3a) [3]: 14.1 nM
3 | Ac-SDDLEFWCHVMY-NH2 (also: homodimer via Cys8 disulfide) [dFz7-21Δ2 (Q519)] | – | – | IC50 (nM), TOPbrite reporter assay in HEK293-TB cells stimulated with mWnt3a (50 ng/mL) [2]: 8.8 nM; Reduction in fold potency vs. dimer [2]: 1 fold; Best Fit IC50 (nM), Wnt3a-mediated β-catenin signaling in HEK293-TB cells (50 ng/mL mWnt3a) [3]: 4.3 nM
4 | Ac-LPSDDLEFWSHVMY-NH2 [Fz7-21S] | – | – | Reduction in fold potency vs. dimer [2]: > 9000 fold
5 | Ac-SDDLEFWCHV[Adp]Y-NH2 (also: dimer via disulfide bond at Cys8) [dFz7-21Δ2.M13Adp] | – | – | Best Fit IC50 (nM), Wnt3a-mediated β-catenin signaling in HEK293-TB cells (50 ng/mL mWnt3a) [3]: 1410 nM
6 | Ac-SDDLEFWCHV[Tbh]Y-NH2 (also: dimer via disulfide bond at Cys8) [dFz7-21Δ2.M13Tbh] | – | – | Best Fit IC50 (nM), Wnt3a-mediated β-catenin signaling in HEK293-TB cells (50 ng/mL mWnt3a) [3]: 477 nM
7 | Ac-SDD[hPhe]EFWCHVMY-NH2 (also: dimer via disulfide bond at Cys8) [dFz7-21Δ2.L6Hof] | – | – | Best Fit IC50 (nM), Wnt3a-mediated β-catenin signaling in HEK293-TB cells (50 ng/mL mWnt3a) [3]: 14.9 nM
8 | Ac-SDDLEFWCHV[ξGly(octyl)]Y-NH2 (also: dimer via disulfide bond at Cys8) [dFz7-21Δ2.M13C8] | – | – | Best Fit IC50 (nM), Wnt3a-mediated β-catenin signaling in HEK293-TB cells (50 ng/mL mWnt3a) [3]: 14000 nM
9 | Ac-SDD[hLeu]EFWCHVMY-NH2 (also: dimer via disulfide bond at Cys8) [dFz7-21Δ2.L6Hol] | – | – | Best Fit IC50 (nM), Wnt3a-mediated β-catenin signaling in HEK293-TB cells (50 ng/mL mWnt3a), n = 2 [3]: 16600 nM
10 | Ac-SDDK(Octanoyl)EFWCHVMY-NH2 (also: dimer via disulfide bond at Cys8) [dFz7-21Δ2.L6KC (8)] | – | – | Best Fit IC50 (nM), Wnt3a-mediated β-catenin signaling in HEK293-TB cells (50 ng/mL mWnt3a) [3]: 1170 nM
11 | HLSDVCCSDWCDLVFW (not fully specified; cysteine pairing not given here, cyclic peptide library) [SEQ ID NO 34] | – | – | signal:noise ratio (hFZD7 CRD-Fc [4]): 16.1; signal:noise ratio (hFZD8 CRD-Fc [5]): 1.09
12 | HLSDVFCSDWCDLVFW (not fully specified; cysteine pairing not given here, cyclic peptide library) [SEQ ID NO 38] | – | – | signal:noise ratio (hFZD7 CRD-Fc [4]): 17.5; signal:noise ratio (hFZD8 CRD-Fc [5]): 1.28
13 | DTDLHQWCLWFT [SEQ ID NO 6] | 30.2 | 9.3 | –
14 | DTDLLQWCLWFT [SEQ ID NO 14] | 31.1 | 6 | –
15 | FWMLLQEGFAFWFP [SEQ ID NO 7] | 30.5 | 6.4 | –
16 | FELLLDLGDLIRLW [SEQ ID NO 8] | 26.9 | 2 | –
17 | ACSYVIDLWNLCLR [SEQ ID NO 9] | 27.6 | 1.5 | –
18 | ASELHDWCRMMFPW [SEQ ID NO 10] | 28.9 | 1.3 | –
19 | ISLIEAMIALDRVF (also called Fz7-06) [SEQ ID NO 11] | 27 | 25.8 | –

Row | Binder | signal:noise ratio (hFZD7 CRD-Fc [6]) | signal:noise ratio (hFZD8 CRD-Fc [7]) | further results
20 | PPNVHEGCWSMFPW [SEQ ID NO 12] | 28.1 | 1.3 | –
21 | TYFDDICNLILPWANP [SEQ ID NO 2] | 27.5 | 1.4 | –
22 | GDFWPGSLLWEILV [SEQ ID NO 17] | 4.4 | 1 | –
23 | ILTFEYFWILGLIL [SEQ ID NO 18] | 4.5 | 1.1 | –
24 | LPLFFLSYVL [SEQ ID NO 19] | 6.3 | 1.1 | –
25 | FLPDQHSHLFLPWGEP [SEQ ID NO 20] | 5.3 | 1 | –
26 | SCQMWSNLRVLFLSYW [SEQ ID NO 21] | 1 | 0.7 | –
27 | VFVPFSELTSLC [SEQ ID NO 22] | 7.8 | 1 | –
28 | IWFKGRFVEFSSLV (also called Fz7-17) [SEQ ID NO 23] | 7.7 | 1 | –
29 | PQDLLDWCHYMIVSSD [SEQ ID NO 3] | 29.1 | 1.3 | –
30 | NAFWRDQCLEWFIICL [SEQ ID NO 24] | 5.5 | 1.1 | –
31 | EHDLLLRAMNSFVLIF [SEQ ID NO 25] | 7.6 | 1 | –
32 | FCENPYIICW [SEQ ID NO 26] | 8.6 | 0.8 | –
33 | NPPPECFLSK [SEQ ID NO 27] | 5.2 | 1.1 | –
34 | VFFYHSLFFIKLILDP [SEQ ID NO 28] | 4.7 | 1.3 | –
35 | ERRVCYPWFEVSQP [SEQ ID NO 29] | 2.6 | 1.2 | –
36 | LSSGKKVSSYWFNFWF [SEQ ID NO 30] | 3.5 | 1 | –
37 | FWFDFWFG [SEQ ID NO 31] | 4.2 | 0.8 | –
